± gives the standard deviation.
Experiment: protein stability index of a GFP-peptide fusion (GPS, HEK-293T) (PSI 1-6); higher = more stable
Conditions: c terminus: a fixed tail appended
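Note: 24-mer peptide tiles fused after GFP, lentivirally expressed, FACS-sorted into six equal bins by GFP/DsRed ratio, decoded by Illumina sequencing, PSI is the read-weighted mean bin number.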

Sequence	protein stability index (treatment: DMSO)	protein stability index (treatment: MLN4924 1 uM, 8 h)
EEDSILIIPTPDEEEKILRVKLEE [ZNF24]	5.03 ± 0.14	5 ± 0.31
TQEQARKEFQQVFIPECNDDGTYS [SMOC2]	4.94 ± 0.27	4.84 ± 0.18
ERLLAVAERYGLSGSDVLDNVAYA [RAD51]	2.8 ± 0.23	2.95 ± 0.094
FPGPQEHTQVLPDVRLLPRRLPLA [DYRK1B]	3.37 ± 0.083	3.58 ± 0.2
FGGSFMAPSPSPVTPAQNNLLQPN [SNAP91]	2.64 ± 0.59	3.09 ± 0.4
HLNRGNHEDHMVNLRYGFTKEVMN [PPEF2]	2.99 ± 0.3	3.16 ± 0.42
EVILLVVMAYDRYMAICKPLHELI [OR4A15]	3.26 ± 0.43	2.97 ± 0.44
MGNSMKSTPAPAERPLPNPEGLDS [SLA]	5.07 ± 0.49	5.13 ± 0.59
KDIVQTVRSRLEEAGIKVHDVRLN [TENT5C]	2.44 ± 0.35	2.78 ± 0.28
VCQRMLNQGFLKVERYHNLCQKQV [FBXO28]	2.18 ± 0.36	2.37 ± 0.27
HCKAGLGRTGTLIACYVMKHYRFT [CDC14A]	3.52 ± 0.52	2.76 ± 0.37
HSEVVEELVSADVIDLFDEQGLSA [RIPK4]	5.02 ± 0.52	4.98 ± 0.52
HNIFLLGGSSTSERCLLNNSLWKK [NLN]	2.39 ± 0.13	2.24 ± 0.39
KDAAKQIAWIKDKLLHIYYQNSID [PDS5B]	1.78 ± 0.31	2.39 ± 0.26
RIHVLPSLNPDGYEKAYEGGSELG [CPXM2]	3.93 ± 0.11	4.36 ± 0.36
YFGSFATVGLLWFAHHSLFLHVRK [TMEM175]	3.17 ± 0.56	3.15 ± 0.42
NIQAGINENDFYDGAWCAGRNDLQ [CPXM2]		3.48 ± 0.71
GGPAQNAPHQQPPAPPSDALLDLH [TFE3]	5.06 ± 0.29	5.29 ± 0.2
EPPCEGNTFFCHSNMCINNTLVCN [NETO1]	2.9 ± 0.24	2.85 ± 0.35
GMANGQQWLQSTSGSQRHMVGQKD [TLE6]	4.49 ± 0.17	4.47 ± 0.29
PPSRGHGYRDYGHSRRHESYSRGY [RBMY1A1]	3.96 ± 0.07	4.01 ± 0.32
SSIVWRFVEDSFDPNINPTIGASF [RAB22A]	2.31 ± 0.57	1.71 ± 0.47

Reference: the supplement of paper PMC10567573
